We go through eight proteins from paper PMC10713844, “Characterization of the enzyme kinetics of EMP and HMP pathway in Corynebacterium glutamicum: reference for modeling metabolic networks” (Frontiers in Bioengineering and Biotechnology, 2023).

What all share (assay): initial-rate kinetics, Michaelis-Menten fit
What all share (format): biochemical, Corynebacterium glutamicum
Holding throughout (settings): PBS with 0.5 mM MgCl2, pH 7.4, 37 °C

Substrate in data set [1]: O=C(CO)[C@H](O)[C@H](O)COP(=O)(O)O
An excerpt:
initial-rate kinetics, Michaelis-Menten fit on RPE (ribulose-5-phosphate 3-epimerase)

Substrate in data set [2]: O=C(CO)[C@H](O)[C@H](O)COP(=O)(O)O
An excerpt:
initial-rate kinetics, Michaelis-Menten fit on RPI (ribose-5-phosphate isomerase)
The source holds these as a separate data set.

Substrate in data set [3]: Nc1ncnc2c1ncn2[C@@H]1O[C@H](COP(=O)(O)OP(=O)(O)OP(=O)(O)O)[C@@H](O)[C@H]1O
The source says:
initial-rate kinetics, Michaelis-Menten fit on GLK (glucokinase)

Substrate in data set [4]: O=C(O)[C@@H](CO)OP(=O)(O)O
The source says:
initial-rate kinetics, Michaelis-Menten fit on ENO (enolase; ENO-Y)

Substrate in data set [5]: O=C[C@H](O)COP(=O)(O)O
The source says: initial-rate kinetics, Michaelis-Menten fit on TAL (transaldolase)

Substrate in data set [6]: O=C(CO)COP(=O)(O)O
An excerpt: initial-rate kinetics, Michaelis-Menten fit on TPI (triosephosphate isomerase)

Substrate in data set [7]: O=C[C@H](O)COP(=O)(O)O
The source says:
initial-rate kinetics, Michaelis-Menten fit on GAPDH (glyceraldehyde 3-phosphate dehydrogenase)
The source holds these as a separate data set.

Substrate in data set [8]: O=C(O)[C@H](O)COP(=O)(O)O
The source says: initial-rate kinetics, Michaelis-Menten fit on PGMA / PMGA / pgma (phosphoglycerate mutase)

B1: RPE (ribulose-5-phosphate 3-epimerase) (Corynebacterium glutamicum ATCC 13032) (protein)
chain: MAQRTPLIAPSILAADFSRLGEQVLAVPDADWIHVDIMDGHFVPNLSFGADITAAVNRVTDKELDVHLMIENPEKWVDNYIDAGADCIVFHVEATEGHVELAKYIRSKGVRAGFSLRPGTPIEDYLDDLEHFDEVIVMSVEPGFGGQSFMPEQLEKVRTLRKVIDERGLNTVIEIDGGISAKTIKQAADAGVDAFVAGSAVYGAEDPNKAIQELRALAQ
With B1, in data set [1], the Km was found to be 2810 ± 1250 µM, the Vmax turned out to be 430 µmol/min/mg and the kcat came to 179 ± 22.2 s⁻¹.

B2: RPI (ribose-5-phosphate isomerase) (Corynebacterium glutamicum ATCC 13032) (protein)
chain: MRVYLGADHAGFETKNAIAEHLKAHGHEVIDCGAHTYDAEDDYPAFCIEAASRTVNDPGSLGIVLGGSGNGEQIAANKVKGARCALAWSVETARLAREHNNANLIGIGGRMHSEEEALAIVDAFLEQEWSNAERHQRRIDILADYERTGIAPVVPNE
As for B2, in data set [2], the Km stood at 420 ± 60 µM, the maximum rate (Vmax) is 11.2 µmol/min/mg and the kcat came out at 3.39 ± 0.22 s⁻¹.

B3: GLK (glucokinase) (Corynebacterium glutamicum ATCC 13032) (protein)
chain: MPQKPASFAVGFDIGGTNMRAGLVDESGRIVTSLSAPSPRTTQAMEQGIFDLVEQLKAEYPVGAVGLAVAGFLDPECEVVRFAPHLPWRDEPVREKLENLLGLPVRLEHDANSAAWGEHRFGAAQGADNWVLLALGTGIGAALIEKGEIYRGAYGTAPEFGHLRVVRGGRACACGKEGCLERYCSGTALVYTARELASHGSFRNSGLFDKIKADPNSINGKTITAAARQEDPLALAVLEDFSEWLGETLAIIADVLDPGMIIIGGGLSNAADLYLDRSVNHYSTRIVGAGYRPLARVATAQLGADAGMIGVADLARRSVVEAN
With B3, in data set [3], the Km stood at 810 ± 80 µM, the Vmax was 37.7 µmol/min/mg and the kcat came out at 22.2 ± 1.07 s⁻¹.

B4: ENO (enolase; ENO-Y) (Corynebacterium glutamicum ATCC 13032) (protein)
chain: MAEIMHVFAREILDSRGNPTVEAEVFLDDGSHGVAGVPSGASTGVHEAHELRDGGDRYLGKGVLKAVENVNEEIGDELAGLEADDQRLIDEAMIKLDGTANKSRLGANAILGVSMAVAKAAADSAGLPLFRYIGGPNAHVLPVPMMNIINGGAHADSGVDVQEFMIAPIGAETFSEALRNGAEVYHALKSVIKEKGLSTGLGDEGGFAPSVGSTREALDLIVEAIEKAGFTPGKDIALALDVASSEFFKDGTYHFEGGQHSAAEMANVYAELVDAYPIVSIEDPLQEDDWEGYTNLTATIGDKVQIVGDDFFVTNPERLKEGIAKKAANSILVKVNQIGTLTETFDAVDMAHRAGYTSMMSHRSGETEDTTIADLAVALNCGQIKTGAPARSDRVAKYNQLLRIEQLLGDAGVYAGRSAFPRFQG
Consider B4, for which, in data set [4], the Km stood at 60 ± 10 µM.

B5: TAL (transaldolase) (Corynebacterium glutamicum ATCC 13032) (protein)
chain: MSHIDDLAQLGTSTWLDDLSRERITSGNLSQVIEEKSVVGVTTNPAIFAAAMSKGDSYDAQIAELKAAGASVDQAVYAMSIDDVRNACDLFTGIFESSNGYDGRVSIEVDPRISADRDATLAQAKELWAKVDRPNVMIKIPATPGSLPAITDALAEGISVNVTLIFSVARYREVIAAFIEGIKQAAANGHDVSKIHSVASFFVSRVDVEIDKRLEAIGSDEALALRGKAGVANAQRAYAVYKELFDAAELPEGANTQRPLWASTGVKNPAYAATLYVSELAGPNTVNTMPEGTIDAVLEQGNLHGDTLSNSAAEADAVFSQLEALGVDLADVFQVLETEGVDKFVASWSELLESMEARLK
Turning to B5, in data set [5], the Km amounted to 290 ± 80 µM, the Vmax turned out to be 6.44 µmol/min/mg and the kcat is 4.24 ± 0.47 s⁻¹.

B6: TPI (triosephosphate isomerase) (Corynebacterium glutamicum ATCC 13032) (protein)
chain: MARKPLIAGNWKMNLDHQQAIGTVQKLAFALPKEYFEKVDVAVTVPFTDIRSVQTLVEGDKLEVTFGAQDVSQHESGAYTGEVSASMLAKLNCSWVVVGHSERREYHNESDELVAAKAKAALSNGISPIVCVGEPLEIREAGTHVEYVVEQTRKSLAGLDAAELANTVIAYEPVWAIGTGKVASAADAQEVCKAIRGLIVELAGDEVAEGLRILYGGSVKAETVAEIVGQPDVDGGLVGGASLDGEAFAKLAANAASVA
For B6, in data set [6], the Michaelis constant (Km) was 5430 ± 160 µM, the Vmax worked out at 160 µmol/min/mg and the kcat was found to be 75.7 ± 2.11 s⁻¹.

B7: GAPDH (glyceraldehyde 3-phosphate dehydrogenase) (Corynebacterium glutamicum ATCC 13032) (protein)
chain: MTIRVGINGFGRIGRNFFRAVLERSDDLEVVAVNDLTDNKTLSTLLKFDSIMGRLGQEVEYDDDSITVGGKRIAVYAERDPKNLDWAAHNVDIVIESTGFFTDANAAKAHIEAGAKKVIISAPASNEDATFVYGVNHESYDPENHNVISGASCTTNCLAPMAKVLNDKFGIENGLMTTVHAYTGDQRLHDAPHRDLRRARAAAVNIVPTSTGAAKAVALVLPELKGKLDGYALRVPVITGSATDLTFNTKSEVTVESINAAIKEAAVGEFGETLAYSEEPLVSTDIVHDSHGSIFDAGLTKVSGNTVKVVSWYDNEWGYTCQLLRLTELVASKL
In the case of B7, in data set [7], the Km amounted to 1470 ± 110 µM, the Vmax worked out at 15.7 µmol/min/mg and the turnover number (kcat) was 9.71 ± 0.36 s⁻¹.

B8: PGMA / PMGA / pgma (phosphoglycerate mutase) (Corynebacterium glutamicum ATCC 13032) (protein)
chain: MTNGKLILLRHGQSEWNASNQFTGWVDVNLTEQGEAEAKRGGELLVEAGVLPGVVYTSLLRRAIRTANIALNAADRHWIPVIRDWRLNERHYGALQGLDKAATKEKYGDDQFMEWRRSYDTPPPELADDAEYSQANDPRYADLDVVPRTECLKDVVVRFVPYFEEEILPRAKKGETVLIAAHGNSLRALVKHLDGISDADIAELNIPTGIPLVYEIAEDGSVVNPGGTYLDPEAAAAGAAAVANQGNK
For B8, in data set [8], the Michaelis-Menten constant (Km) is 4440 ± 320 µM, the Vmax worked out at 43.2 µmol/min/mg and the kcat came to 20.4 ± 1.05 s⁻¹.
